Assay results reported in the emibetuzumab library of Makowski et al. (2022).

B1: VH:VL chains; a variant is named by its letters at X, in order (parent)
chain 1: QVQLVQSGAEVKKPGASVKVSCKASGYTFTDYXMHWVRQAPGQGLEWMGXVNPNXXXTTYNQKFEGRVTMTTDTSTSTAYMELRSLRSDDTAVYYCARXNXLDXWGQGTTVTVSS
chain 2: DIQMTQSPSSLSASVGDRVTITCSVSSSVSSIYLHWYQQKPGKAPKLLIYSTSNLASGVPSRFSGSGSGTDFTLTISSLQPEDFATYYCQVYSGYPLTFGGGTKVEIK

Variants of: B1
Assay: yeast display scFab, FACS + sequencing
How it was run: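 For the non-specific binding call, a heavy-chain CDR mutant scFab library on the yeast surface was FACS-sorted and samples from two replicates were deep sequenced. Cells were labelled with anti-Myc and either biotinylated ovalbumin (260 μg/mL in PBSB, 3 h, room temperature) or soluble membrane proteins (130 μg/mL, 20 min on ice), with gates on the top 25% and bottom 10% of binders. With membrane protein and ovalbumin samples pooled, a sequence in ≥3 of 4 positive samples and no negatives was scored positive, and the converse rule scored negatives.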

| Variant | non-specific binding call |
| --- | --- |
| FRERGSWV | binds |
| ARGEGSGV | no binding |
| FRGADSGF chain 1 R98K | binds |
| VRERGDWF | no binding |
| VRERGDWV | no binding |
| YRERDSAD | binds |
| YRGEASVD | binds |
| AREGDAGD | no binding |
| YRGGAAAA | binds |
| YREGGSLD | binds |
| FRARSSGF | binds |
| YREGGSGV | binds |
| YRGAASAV | binds |
| YRGAGSVD | binds |
| FRERGDGA | binds |
| VREGSSAA | binds |
| VREEGDGA | no binding |
| YRGEGDAV | no binding |
| YRGEGDAA | no binding |
| DREGDYLY | no binding |
| DREEGDAV | no binding |
| YRGESAVD | binds |
| DREEGVGV | no binding |
| YRGESAWV | binds |
| VRARGVVA | binds |

| Variant | non-specific binding call |
| --- | --- |
| FREGGAVS | binds |
| YRERAAGY | binds |
| YRERGAVV | binds |
| FRATSAVD | binds |
| YRERTAAV | binds |
| YREGDFVD | binds |
| FRGEGAAD | binds |
| YRARSFGD | binds |
| YRARSFGS | binds |
| VRERGDGS | no binding |
| VRERGDGV | no binding |
| YRARSAVD | binds |
| YRARSAVV | binds |
| YRARSAVA | binds |
| YRARSAVY | binds |
| YREKGAGD | binds |
| VRERGAWD | binds |
| VREGDYLS | binds |
| DREEGDGS | no binding |
| DREEGDGV | no binding |
| YRGAGSAD | binds |
| YRARGSVF | binds |
| YRARGSVS | binds |
| SREAADGV | no binding |
| FRGEGFSV | binds |

| Variant | non-specific binding call |
| --- | --- |
| FRGAGSVD | binds |
| FRGAGSVA | binds |
| VREGDDAV | no binding |
| DRGEGAGD chain 1 G42D | no binding |
| ARARGSWV | binds |
| DREGGVSD | binds |
| FREGASWD | binds |
| YRGAGALV | binds |
| VRERGSLY | binds |
| AREEGFSV | no binding |
| FRERGYGA | binds |
| YRGEAFLY | binds |
| YRARSSWD | binds |
| YRARSSWS | binds |
| YRATDFVV | binds |
| VRERGAGS | binds |
| FRGESSAD | binds |
| SREAAAVY | no binding |
| VRERGDAA | no binding |
| VRERGDAS | binds |
| DREEGDWA | no binding |
| DREEGDWV | no binding |
| YREGGSVD | no binding |
| AREKGSAA | binds |
| DREEGSWV | no binding |

| Variant | non-specific binding call |
| --- | --- |
| VRGEGSWD | binds |
| SREAASLA | no binding |
| YRERGSSF | binds |
| VREAADSF | no binding |
| FREGSASV | binds |
| VRGAGAWV | binds |
| FREGGALD | binds |
| FRERGALA | binds |
| FREGSAVA | binds |
| YRGEGASD | binds |
| YRGAGAAA | binds |
| YRGAGAAD | binds |
| YRARSAGF | binds |
| YRARSAGA | binds |
| YRARSAGY | binds |
| YRARSAGV | binds |
| FRERGAVV | binds |
| SREGGFAA | binds |
| YRARSAWV | binds |
| YRARSAWS | binds |
| YRARSAWA | binds |
| DRARTFVA | binds |
| ARGAGYGS | binds |
| VRATGSVY | binds |
| VRERGDLV | no binding |

| Variant | non-specific binding call |
| --- | --- |
| FRETDFGA | binds |
| FRERGAGD | binds |
| FRERGAGY | binds |
| YREGDAAD | no binding |
| FRERGSAD | binds |
| FRERGSAV | binds |
| FRGESAGS | binds |
| FRGESAGV | binds |
| FRGESAGA | binds |
| DREGDAVA | no binding |
| SREAADAV | no binding |
| VRGAGSWV | binds |
| FRGEGALV | binds |
| DREEGAGS | no binding |
| DREEGAGV | no binding |
| DREEGAGA | no binding |
| YRERSDVS | binds |
| VRERGSSF | no binding |
| YREKGSAA | binds |
| YRARGYVY | binds |
| FRGADFGD | binds |
| FRERNAAA | binds |
| YRERGAAV | binds |
| YRERGAAF | binds |
| YRERGAAA | binds |

| Variant | non-specific binding call |
| --- | --- |
| YRERGAAD | binds |
| FRARGSWV | binds |
| YRARSSAA | binds |
| YRARSSAD | binds |
| YRARSSGV | binds |
| YRARSSGA | binds |
| YREEGDVF | no binding |
| YRGAGFVD | binds |
| VRERGSWD | binds |
| VRERGSWV | binds |
| YRGGAAWD | binds |
| YRGGAAWY | binds |
| SREGGVVV | binds |
| YRGAGYAA | binds |
| FRGEGSVS | binds |
| DREEGFSV | no binding |
| YRARSAAD | binds |
| YRARSAAV | binds |
| YREKGSLD | binds |
| FRERGAAA | binds |
| DREEGSSY | no binding |
| DREEGSSA | no binding |
| ARERGDGY | no binding |
| YRGAGSGY | binds |
| YRGAGSGS | binds |

| Variant | non-specific binding call |
| --- | --- |
| YRGAGSGD | binds |
| YRGAGSGV | binds |
| DREGDDAV | no binding |
| FRGEGSGV | binds |
| YRARGVGA | binds |
| YRARGVGV | binds |
| FRGESSWD | binds |
| DREEGDVV | no binding |
| YRGAGYGS | binds |
| YREKDSAD | no binding |
| YRARSSSD | binds |
| YRARSSLA | binds |
| YRARSSLY | binds |
| YRARSALD | binds |
| YRERNAAA | binds |
| AREGDDVA | no binding |
| YREKGSSA | binds |
| YREKGSSV | binds |
| YRGADFGF | binds |
| VRERGVGV | binds |
| YRERGAWV | binds |
| SREAASGV | no binding |
| YRARSASA | binds |
| YRARSASV | binds |
| YREGGAGV | binds |

| Variant | non-specific binding call |
| --- | --- |
| FRGEGAVS | binds |
| VRERGASD | binds |
| YRGANSVF | binds |
| YRGEGAWV | binds |
| VRATGYWA | binds |
| YRGESSGF | binds |
| YREGGFVA | binds |
| YRARGSWS | binds |
| YRARGSWD | binds |
| YRARGYGV | binds |
| YRGASAAA | binds |
| YRGASSGF | binds |
| YRGANSGA | binds |
| FREGGSGD | binds |
| SRGANAWD | binds |
| YREEGDGV | no binding |
| SRGGAAWA | binds |
| SREAADWA | no binding |
| SREAADWV | no binding |
| YRERGALS | binds |
| YRERGALA | binds |
| FRARSAAV | binds |
| FRARSAAA | binds |
| FREEGFSV | no binding |
| YRERGAGF | binds |

| Variant | non-specific binding call |
| --- | --- |
| YREKAAWA | binds |
| FRGESSGA | binds |
| YRGEGSAS | binds |
| DREEGAVV | no binding |
| DREEGAVY | no binding |
| DREEGAVA | no binding |
| YREGGDGA | no binding |
| YRARSSVV | binds |
| YRARSSVA | binds |
| YRGASSWV | binds |
| YRGAGAWV | binds |
| YRGAGAWA | binds |
| YRGAGAWS | binds |
| YRGAGAVS | binds |
| YRGAGAVY | binds |
| YRARGVVV | binds |
| YRGAGAGV | binds |
| YRGAGAGA | binds |
| YRGAGAGS | binds |
| YREETSGA | binds |
| VRERSSVD | binds |
| DREEGSGD | no binding |
| YRGEGAVS | binds |
| SREEGFSV | no binding |
| YRERSSVA | binds |

| Variant | non-specific binding call |
| --- | --- |
| YREKGAAA | binds |
| YRERGSWV | binds |
| YRGAGSLD | binds |
| FRGESAAA | binds |
| YRERGSAV | binds |
| YRERGSAA | binds |
| YRERGSAD | binds |
| DRERGDGY | no binding |
| YRGAASSD | binds |
| YREGDASD | no binding |
| SRATAYSD | binds |
| VRERGSAV | binds |
| VRERGSAD | binds |
| YRARSAGF chain 1 G108D | binds |
| FREKGDLA | no binding |
| YRERSSLD | binds |
| YRARSDVF | no binding |
| VREGAAAV | no binding |
| FREKDSAD | no binding |
| YRGAAASS | no binding |
| YRGANVVY | binds |
| YREGGFAA | binds |
| FRGEAVVY | binds |
